Earlier results, collected in publication PMC3985900.

Legend:
Glu85 = Glu85 (UniProt position 98, WARYAEWLFTT); assay: UV-vis; conditions: Resting state, with retinal bound
Asp85 = Asp85 (UniProt position 98, WARYADWLFTT); assay: UV-vis; conditions: Resting state, with retinal bound

Substance	pKa (Glu85)	pKa (Asp85)
Bacteriorhodopsin D85E (Halobacterium salinarum; D85E)	9.4	
Bacteriorhodopsin (native, purple membrane) (Halobacterium salinarum)		∼3
